Experimental findings from patent US20250257110A1 are described below.

The test addresses TAG72 antigen (tumor associated glycoprotein-72). Put plainly: method not stated; scFv affinity toward TAG72 antigen.

With original humanized CC49 scFv (IDEC), the Kd (commonly the equilibrium constant for the complex coming apart) came to 33 nM.
